Measurements: the RNAGym collection of RNA variant scans (doi:10.7554/elife.90254)

B1: LINE1-full (parent)
chain: UACGUAGGUGGUUUUCCCCUGAUAGUGCUAAGGGGGCCUGGAAGUUUGGACUGGGCAGAGCUCAACACAGCGUGGCAAAGUGGCUGUGGCUAGACUGCCUCUCUGGAUUCCUCGUCACUCAGCAGGGCAUCUCUGAGAGAAAUGCC

Variants of: B1
Test: self-cleavage, relative activity (ratio to wild type); higher = more cleavage; in vitro, sequencing; the parent is a self-cleaving ribozyme
Work on UACGUAGGUGGGUUUCCCCUGAUAGUGCUAAGGGGGCCUGGAAGUUUGGACUGGGCAGAGCUCAACACAGCGUGGCAAAGUGGCUGUGGCUGGACUGCCUCUCUGGAUUCCUCGUCACUCAGCAGGGCAUCUCUGAGAGAAAUGCC [U12G A92G] yielded a self-cleavage of 0.21. In the case of UACGUAGGUGGUUUUCCCCUGAUAGUGCUAAGGGGGCCUGGAAGUUUGGACUGGGCAGAGCUCAACAUAGCGUGGCAAAGUGGCUGUGGCUAGACUGCCUCUCUGGAUUCCUCGUCACUCAGCAGGGCAUCUCUGAGAGAAGUGCC [C68U A142G], the self-cleavage is reported as 0.14. UACGUUGGAGGUUUUCCCCUGAUAGUGCUAAGGGGGCCUGGAAGUUUGGACUGGGCAGAGCUCAACACAGCGUGGCAAAGUGGCUGUGGCUAGACUGCCUCUCUGGAUUCCUCGUCACUCAGCAGGGCAUCUCUGAGAGAAAUGCC [A6U U9A] showed a self-cleavage of 1.56. Work on UACGUAGGUGGUUUUCCCCUAAUAGUGCUAAGGGGGCCUGGAAGUUUGGACUGGGCAGAGCUCAACACAGCGUGGCAAAGUGGCUGUGGCUAGACUGCCUCUCUGGAUUCCUCGUCACUCAGCAGGGCAUCCCUGAGAGAAAUGCC [G21A U132C] yielded a self-cleavage of 1.63. For UACGUAGGUGGUUUUCCCCUGAUAGUGCUAAGGGGGCCUGGAAGUUUGGACUGGGCAGAGCUCAACACAGCGUGGCAAAUUGGCUGUGGCUAGACUGCCUCUCUGGAUUCCUCGUCACUCAGCAGGGCACCUCUGAGAGAAAUGCC [G80U U130C], the self-cleavage was 0. With UACGUAGGCGGAUUUCCCCUGAUAGUGCUAAGGGGGCCUGGAAGUUUGGACUGGGCAGAGCUCAACACAGCGUGGCAAAGUGGCUGUGGCUAGACUGCCUCUCUGGAUUCCUCGUCACUCAGCAGGGCAUCUCUGAGAGAAAUGCC [U9C U12A] the self-cleavage was 1.51. For UACGUACGUGGUUUUCCCCUGAUAGUGCUAAGGGGGCCUGGAAGUUUGGACUGGGCAGAGCUCAACACAGCGCGGCAAAGUGGCUGUGGCUAGACUGCCUCUCUGGAUUCCUCGUCACUCAGCAGGGCAUCUCUGAGAGAAAUGCC [G7C U73C], the self-cleavage was 0.74. In the case of UACGUAGGUGGUUUUCCCCUGAUAGUGCUAAGGGGGCCUGGAAGUUUGGACUGGGCAGAGCUCAACACAGCGUGGCAAAGUGGCUGUGGCUAGACUGCCUCUCUGGACUCCUCGUCACUCAGCAGGGCAUCUCUGGGAGAAAUGCC [U108C A136G], the self-cleavage is reported as 1.83. UACGUAGGCGGUUUUCCCCUGAUAGUGCUAAGGGGGCCUGGAAGUUUGGACUGGGCAGAGCUCAACACAGCGUGGCAAAGUUGCUGUGGCUAGACUGCCUCUCUGGAUUCCUCGUCACUCAGCAGGGCAUCUCUGAGAGAAAUGCC [U9C G82U] showed a self-cleavage of 1.34. UACGUAGGUGGUUUUCCCCUGUUAGCGCUAAGGGGGCCUGGAAGUUUGGACUGGGCAGAGCUCAACACAGCGUGGCAAAGUGGCUGUGGCUAGACUGCCUCUCUGGAUUCCUCGUCACUCAGCAGGGCAUCUCUGAGAGAAAUGCC [A22U U26C] gave a self-cleavage of 1.18. Work on UACGUAGGUGGUUUUCCCCUGAUAGUGCUAAGGGGGCCUGGAAGUUUGGACUGGGCAGAGCUCAACACAGCGUGGCAAAGUGGCUGUGGCUAGACUGCCUCUCUGGAUUCCUCGUCUCUCAGCAGGGCAUCUCUGAGAGAAGUGCC [A117U A142G] yielded a self-cleavage of 1.43. With UACGUAGGUGGUUUUCCCCUGAUAGUGCUAAGGGGGCCUGGAAGUUUGGACUGGGCAGAGCUCAACACAGCGUGGCAAAGUGGCUGUGGCUAGACGGCCUCUCUGGAUACCUCGUCACUCAGCAGGGCAUCUCUGAGAGAAAUGCC [U96G U109A] the self-cleavage was 0. With UACGUAGGUGGGUUUCCCCUGAUAGUGCUAAGGGGGCCUGGAAGUUUGGACUGGGCAGAGCUCAACACAGCGUGGCAAAGUGGCUGUGGCUAGACUGCCUCUCUGGAUUCCUCGUCACUCUGCAGGGCAUCUCUGAGAGAAAUGCC [U12G A121U] the self-cleavage was 1.31. Work on UACGUAGGUGGUUUUCCCCUGAUAGUGCUAAGGGGGCCUGGAAGUUUGGACUGGGCAGAGCCCAACACAGCGCGGCAAAGUGGCUGUGGCUAGACUGCCUCUCUGGAUUCCUCGUCACUCAGCAGGGCAUCUCUGAGAGAAAUGCC [U62C U73C] yielded a self-cleavage of 0.07. Variant UACGUAGGUGGUUUUCCCCUGAUAGCGCUAAGGGGGCCUGGAAGUUUGGACUGGGCAGAGCUCAACACAGCGUGGCAAAGUGGCUGUGGCUAGACUGCCUCUCUGGAUUCCUCGUCACUCAGCAGGGCAUCCCUGAGAGAAAUGCC [U26C U132C] has a self-cleavage of 1.62. In the case of UACGUAGGUGGUUUUCCCCUGAUAGUGCUAAGGGGGCCUGGAAGUUUGGACUGGGCAGAGCACAACACAGCGUGGCAAAGUGGCUGUGGCUAGACUGCCUCUCUGGAUUCCUCGUCACUCAGCAGGGCAUCUCUGAGAGUAAUGCC [U62A A140U], the self-cleavage is reported as 0.03. In the case of UACGUAGGUGGUUUUCCCCUGAUAGUGCUAAGGGGGCCUGGAAGUUUGGACUGGGCAGAGCUUAACACAGCGUGGCAAAGUGGCUGUGGCUAGACCGCCUCUCUGGAUUCCUCGUCACUCAGCAGGGCAUCUCUGAGAGAAAUGCC [C63U U96C], the self-cleavage is reported as 0. UACGUACGUGGUCUUCCCCUGAUAGUGCUAAGGGGGCCUGGAAGUUUGGACUGGGCAGAGCUCAACACAGCGUGGCAAAGUGGCUGUGGCUAGACUGCCUCUCUGGAUUCCUCGUCACUCAGCAGGGCAUCUCUGAGAGAAAUGCC [G7C U13C] showed a self-cleavage of 2.07. In the case of UACGUAGGUGGUUUUCCCCUGAUAGUGCUAAGGGGGCCUGGAAGUUUGGACUGGGCAGAGCUCAACACAGCGUGGCAAAGUGGCUGUGACUAGACUGCCACUCUGGAUUCCUCGUCACUCAGCAGGGCAUCUCUGAGAGAAAUGCC [G89A U100A], the self-cleavage is reported as 0.04. For UACGUAGGUGGUUUUCCCCUGAUAGUGCUAAGGGGGCCUGGAAGUUUGGACUGAGCAGAGCUCAACACAGCGUGGCAAAGUGGCUGUGGCUAGACUGCCUCUCUGGAUUCCUCGUCACUCCGCAGGGCAUCUCUGAGAGAAAUGCC [G54A A121C], the self-cleavage was 1.05. UACGUAGGUGGUUUUCCCCUGAUAGUGCUAAGGGGGCCUGGAAGUUUGGACUGGGCAGAGCUCAACACAGCGUGGCAAAGUGGCUUUGGCUAGACUGCCUCUCUGGAUUCCUCGUCACUCAGCAGGGCAUCUCUGAGGGAAAUGCC [G86U A138G] gave a self-cleavage of 0.09. Work on UACGUAGGUGGUUUUCCCCUGAUAGUGCUAAGGGGGCCUGGAAGUUUGGACUGGGCAGAGCUCAACACAGCGUGGCAAAGUGGCUGUGUCUUGACUGCCUCUCUGGAUUCCUCGUCACUCAGCAGGGCAUCUCUGAGAGAAAUGCC [G89U A92U] yielded a self-cleavage of 0.07. In the case of UACGUAGGUGGUUUUCCCCUGAUAGUGCUAAGGGGGCCUGGAAGUUUGGACUGGGCAGAGCUCAACACAGCGUGGCAUAGUGGCUGUGGCUAGACUGCCUCUCUGGAUUCCUCGUCACUCAGCAGGGCAACUCUGAGAGAAAUGCC [A78U U130A], the self-cleavage is reported as 2.96. In the case of UACGUAGGUGGUUUUCCCCUGAUAGUGCUAAGGGGGCCUGGAAGUUUGGACUGGGCAGAGCUCAACACAGCGAGGCAAAGUGGCUGUGGCUAGACUGCCUCUCUGGAUUCCUCGUCACUCAACAGGGCAUCUCUGAGAGAAAUGCC [U73A G122A], the self-cleavage is reported as 1.98. With UACGUAGGUGGUUUUCCCCUGAUAGUGCUAAGGGGGCCAGGAAGUUUGGACUGGGCAGAGCUCAACACAGCGUGGCAAAGUGGCUGUGGCAAGACUGCCUCUCUGGAUUCCUCGUCACUCAGCAGGGCAUCUCUGAGAGAAAUGCC [U39A U91A] the self-cleavage was 0.56. UACGUAGGUGGUUUUCCCCUGAUAGUGCUAAGGGGGCCUGGAAGUUUGGACGGGGCAGAGCUCAACACAGCGUGGCAAAGUGGCUGUGGCUAGACUGCCUCUCUGGAUUCCUCGUCACUCAGCAGGGCAUCUCUGAGAGAAAUACC [U52G G144A] showed a self-cleavage of 1.34. UACGUAGGUGGUUUUCCCCUGAUAGUGCUGAGGGGGCCUGGAAGUUUGGACUGGGCAGAGCUCAACACAGCGUGGCAAAGUGGCUGUGGCUAGACUGCCUCUCUGGAUUCCUCGUCGCUCAGCAGGGCAUCUCUGAGAGAAAUGCC [A30G A117G] gave a self-cleavage of 0.91. UACGUAUGUGGUUUUCCCCUGAUAGUGCUAAGGGGGCCUGGAAGUUUGGACUGGGCAGAGCUCAACACAGCGUGGCAAAGUGGCUGAGGCUAGACUGCCUCUCUGGAUUCCUCGUCACUCAGCAGGGCAUCUCUGAGAGAAAUGCC [G7U U87A] gave a self-cleavage of 0.12. UACGUAGGUGGUUUCCCCCUGAUAGUGCUAAGGGGGCCUGGAAGUUUGGACUGGGCAGAGCACAACACAGCGUGGCAAAGUGGCUGUGGCUAGACUGCCUCUCUGGAUUCCUCGUCACUCAGCAGGGCAUCUCUGAGAGAAAUGCC [U15C U62A] gave a self-cleavage of 0.07. In the case of UACGUAGGUGGUUUUCCCCUGAUAGUGCUAAGGGGGCCUGGAGGUUUGGACUGGGCAGAGCUCAACACAGCGUGGCAAAGUGGCUGUGGCUAGACUGCCUCUCUGGAUUCCUCGUCACUCAGCAGGACAUCUCUGAGAGAAAUGCC [A43G G127A], the self-cleavage is reported as 0.98. For UACGUAGGUGGUUUUCCCCGGAUAGUGCUAAGGGGGCCUGGGAGUUUGGACUGGGCAGAGCUCAACACAGCGUGGCAAAGUGGCUGUGGCUAGACUGCCUCUCUGGAUUCCUCGUCACUCAGCAGGGCAUCUCUGAGAGAAAUGCC [U20G A42G], the self-cleavage was 0.67. In the case of UACGUAGGUGGUUUUCCCCUGAUGGUUCUAAGGGGGCCUGGAAGUUUGGACUGGGCAGAGCUCAACACAGCGUGGCAAAGUGGCUGUGGCUAGACUGCCUCUCUGGAUUCCUCGUCACUCAGCAGGGCAUCUCUGAGAGAAAUGCC [A24G G27U], the self-cleavage is reported as 1.17. Work on UACGUAGGUGGUUUUCCCCUGAUAGUGCUAAGGGGGCCUGGAAGUUUGGACUGGGCAGAGCUCUACACAGCGUGGCAAAGUAGCUGUGGCUAGACUGCCUCUCUGGAUUCCUCGUCACUCAGCAGGGCAUCUCUGAGAGAAAUGCC [A64U G82A] yielded a self-cleavage of 0.65. UACGUAGGUGGUUUUCCCCUGAUAGUGCUAAGGGGGCCUGGAAGUUUGGACCGGGCAGAGCUCAACACAGCGUGGCAAAGUGGCUGUGGCUAGACAGCCUCUCUGGAUUCCUCGUCACUCAGCAGGGCAUCUCUGAGAGAAAUGCC [U52C U96A] showed a self-cleavage of 0.1. UACGUAGGUGGUUUUCCCCAGAUAGUGCUAAGGGGGCCUGCAAGUUUGGACUGGGCAGAGCUCAACACAGCGUGGCAAAGUGGCUGUGGCUAGACUGCCUCUCUGGAUUCCUCGUCACUCAGCAGGGCAUCUCUGAGAGAAAUGCC [U20A G41C] gave a self-cleavage of 0.73. Variant UACGUAGGUGGUUUUCCCCUGAUAGUGCUAAGGGGGCCUGGAAGAUUGGACUGGGCAGAGCUCAACACAGCGUGGCAAAGUGGCUGUGGCUAGACUGCCUCUCUGGAUUCCUCGUCACUCAGCAGGGCAUCUCUGAGAAAAAUGCC [U45A G139A] has a self-cleavage of 1.33. UACGUAGGUGGUUUUCCCCUGAUAGUGCUAAGGGGGCCUGGAAGUUUGGACUGGGCAGAGCUCAACACAGCGUGGCAAAGUGGCUGUGGCUAGACUGCCUCUCUGGGUUCCUCGUCAUUCAGCAGGGCAUCUCUGAGAGAAAUGCC [A107G C118U] showed a self-cleavage of 1.56. Variant UACGUAGGUGGUUAUCCCCUGAUAGUGCUAAGGGGGCCUGGAAGUUUGGACUGGGCAGAGCUCAACACAACGUGGCAAAGUGGCUGUGGCUAGACUGCCUCUCUGGAUUCCUCGUCACUCAGCAGGGCAUCUCUGAGAGAAAUGCC [U14A G70A] has a self-cleavage of 0.19. UACGUAGGUGGUUUUCCCCUGAUAGUGCUAAGGGGGCCUGGAAGUUUGGACUGGGCGGAGCUCAACACAGCGUGGCAAAGCGGCUGUGGCUAGACUGCCUCUCUGGAUUCCUCGUCACUCAGCAGGGCAUCUCUGAGAGAAAUGCC [A57G U81C] showed a self-cleavage of 0.89.
